Laboratory results from patent publication US20110166036A1.

Biological target: recombinant human sortilin (human) (UniProt Q99523)
Test: SPR (BIAcore), sortilin immobilized on CM5 chip, ApoB 10, 20, 50 nM

Chain of recombinant human sortilin (human) (Q99523 78-755 limits assumed, form in doubt): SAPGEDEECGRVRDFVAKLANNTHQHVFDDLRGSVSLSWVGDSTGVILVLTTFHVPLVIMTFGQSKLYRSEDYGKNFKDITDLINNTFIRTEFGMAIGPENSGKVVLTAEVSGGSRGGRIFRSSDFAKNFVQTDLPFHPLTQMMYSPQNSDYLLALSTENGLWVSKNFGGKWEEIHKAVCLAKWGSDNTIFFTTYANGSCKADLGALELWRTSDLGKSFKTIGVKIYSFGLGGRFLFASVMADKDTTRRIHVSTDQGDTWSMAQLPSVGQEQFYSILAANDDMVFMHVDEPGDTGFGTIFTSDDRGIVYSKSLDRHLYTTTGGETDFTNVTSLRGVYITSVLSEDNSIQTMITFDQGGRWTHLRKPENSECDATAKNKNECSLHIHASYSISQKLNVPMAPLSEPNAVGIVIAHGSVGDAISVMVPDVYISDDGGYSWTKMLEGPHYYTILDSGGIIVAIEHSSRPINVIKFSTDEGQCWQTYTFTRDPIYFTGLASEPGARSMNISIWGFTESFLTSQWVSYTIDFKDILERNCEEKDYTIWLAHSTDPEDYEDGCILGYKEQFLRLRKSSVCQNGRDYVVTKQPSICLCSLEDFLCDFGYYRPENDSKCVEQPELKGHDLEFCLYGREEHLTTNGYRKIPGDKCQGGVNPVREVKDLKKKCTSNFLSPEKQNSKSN

Kd: 0.4 nM
Substance: ApoB (ligand)
